# In the RNAGym collection of RNA variant scans (doi:10.1073/pnas.2313332121):
# Variants at the floor of the assay were thinned out.
# B1: TPR 5TU (parent)
# chain: GGAUCUUCUCGAUCUAACAAAAAAGACAAAUCUGCCACAAAGCUUGAGAGCAUCUUCGGAUGCAGAGGCGGCAGCCUUCGGUGGCGCGAUAGCGCCAACGUUCUCAACUAUGACACGCAAAACGCGUGCUCCGUUGAAUGGAGUUUAUCAUG
# Variants of: B1
# Test: polymerase ribozyme fitness, log enrichment relative to wild type (log ratio); higher = more active; in vitro selection for triplet polymerase activity
# Outline: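 Libraries of mutants in each subunit of a heterodimeric triplet polymerase ribozyme were generated by PCR and transcribed. In triplicate, each went through one in vitro selection round: annealing with biotinylated primer, partner subunit and triplets; frozen incubation at −7 °C; gel excision of extended constructs; streptavidin-bead capture; RT-PCR. Fitness, taken from Illumina sequencing of input and output libraries, is the logarithm of a genotype's enrichment over wild-type enrichment, averaged across replicates with inverse-variance weights. The logarithm is base 2, and genotypes needed ≥10 input reads and ≥1 read per output to be kept.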
row,Variant,polymerase ribozyme fitness (log ratio)
1,C18U C32U A41G G48A G68C C87U G94U A107G C149A A150G,≤ -4.2
2,A17G A20U G42C A49C A52U U148A,≤ -4.2
3,A17U C51U C95U C103A,-1.47
4,C18U C87U,-1.47
5,A16U C54G C87A A98U,≤ -4.2
6,A16U G48U G86C C87A A97U C123U U148G,≤ -4.2
7,A17C G50U C54U C96G,-1.28
8,A17C C85G C149G,≤ -4.2
9,A17G A39U C54G A64C A89C U90G A122U U139C U144A,≤ -4.2
10,A17G C57U C69A G100A,≤ -4.2
11,A17U C18U A22C,-1.32
12,A17U A22U C35U C51U G83U,-1.87
13,C18U A113G C123A,-3.22
14,C18G G58C G81A,-0.953
15,A17C C35U G92A A122G,-2.61
16,C18G C27U A64C C93U,≤ -4.2
17,A17U A37U C96A C99U A113C U134G G152C,-4.19
18,C18A U56A C93A A137G,-4.08
19,A17G A19C U55G C87U C93U C108U G141U,≤ -4.2
20,A17C A28U G88C U144C,-4.01
21,A17C C27U C85U G86U C123U G141A,-3.85

row,Variant,polymerase ribozyme fitness (log ratio)
1,C18G C51U C85A A107U C118U A137U,≤ -4.2
2,A16U G42A G59A G71A A89G,≤ -4.2
3,A17U C108U,-3.48
4,A17U A22U A26G C36G G67C C95A,≤ -4.2
5,A16U A24C C27U C85U G126U,≤ -4.2
6,C18U G34C U44A C75G C96A C99G A119C,≤ -4.2
7,A17U A28G G86C A106C C116A A119U,≤ -4.2
8,A17U A26U A47C A49C G83C C85G,≤ -4.2
9,C18G U61C C85G C95U,≤ -4.2
10,C18G C35U U55A G62U G68U C75U C96U,≤ -4.2
11,C18A A20U A24G A26G A29U C57A U77A G88C,≤ -4.2
12,A17G C36U,-3.9
13,A17U A37C G46A C85G C114U,≤ -4.2
14,C18U C36A C38A U55A G84U,≤ -4.2
15,A16U C36U C51A G92A,≤ -4.2
16,C18U G92U A97G U146A,-2.16
17,A16U A20C U31G G42C C87G G88C,≤ -4.2
18,C18A A20G A24C C27G U82C G126U,≤ -4.2
19,A17U C35U A66C C72U G80A C93A,≤ -4.2
20,A17G U31A,0.512
21,C18U U144C C149U,-4.09

row,Variant,polymerase ribozyme fitness (log ratio)
1,A17U U31A C57U C76U C96G C103G U146C,≤ -4.2
2,A16U C85U,-2.1
3,A17C G83C,-0.317
4,C18G U55A C85G,-2.84
5,A16U A20U C54U G58C G59A C93U C114U U148A,≤ -4.2
6,C18A C38A A47C C93A A98U,-3.69
7,A17G C76A A119U,-0.0837
8,C18G A24U G50U U53A A73G G92A,≤ -4.2
9,A17C G94A A121U U145A U148C,-1.99
10,C18G A20C U56G G94A,-1.51
11,A16U U53A C57A C95A,-2.57
12,C18G C72G G84C,≤ -4.2
13,A16U A26C A29U G68C G83A,≤ -4.2
14,A17G C87U,-0.0232
15,A17G A30U G83A U101C G128U,≤ -4.2
16,A17C G25C G62U,-3.17
17,A17U C18U G94C A115U,-3.41
18,C18U U31C A89C C93A G140U,≤ -4.2
19,A17G A60G G84U C118A U146G,-2.3
20,A17G A22G A24U G46A A47C C123A C129A,≤ -4.2
21,A17U A40U A52G G59A C99G U135C A138G,≤ -4.2

row,Variant,polymerase ribozyme fitness (log ratio)
1,A16U C18G A21U A98G C105U,≤ -4.2
2,A17G A23U C79G,≤ -4.2
3,A19C A52C C85U C96U C108G G140C,≤ -4.2
4,A17G C57U G94C U139C U144A,≤ -4.2
5,A16U A39U A49U G50C G84U A119G A121G G140U,≤ -4.2
6,A17U A24U,0.106
7,C18G U44A G83A C85A A98U U102G,≤ -4.2
8,C18G G141C,-1.51
9,A19C A22U C38G G58C C85U U102A,-1.87
10,C18G G46U A73U C85U G92U C125A,≤ -4.2
11,A17U U77G C87G G92C A119C,≤ -4.2
12,A16U C57G U77A G88U,≤ -4.2
13,A17U A28U G83U C96A C99U C132G,≤ -4.2
14,C18U A89C A91G A122U C125A U134C,≤ -4.2
15,A17U G94C,-1.63
16,C18G G42C C87U A138C U145A,≤ -4.2
17,A17U A60C G88C,≤ -4.2
18,A16U A20C C27U A37U G59C A64C C85U A113G A120U C132U,≤ -4.2
19,A17U U44A U55G G136A,≤ -4.2
20,C18G A22G C27U A41U A49C C57A C93G G140C,-4.12
